{
  "source": "paper PMC5648754",
  "about": "“CryoEM structure of Saccharomyces cerevisiae U1 snRNP offers insight into alternative splicing” (Nature Communications, 2017)",
  "binders": {"B1": {"name": "yeast Nam8 (natural protein, S. cerevisiae, UniProt Q00539 1-523, looked up)", "chain": "MSYKQTTYYPSRGNLVRNDSSPYTNTISSETNNSSTSVLSLQGASNVSLGTTGNQLYMGDLDPTWDKNTVRQIWASLGEANINVRMMWNNTLNNGSRSSMGPKNNQGYCFVDFPSSTHAANALLKNGMLIPNFPNKKLKLNWATSSYSNSNNSLNNVKSGNNCSIFVGDLAPNVTESQLFELFINRYASTSHAKIVHDQVTGMSKGYGFVKFTNSDEQQLALSEMQGVFLNGRAIKVGPTSGQQQHVSGNNDYNRSSSSLNNENVDSRFLSKGQSFLSNGNNNMGFKRNHMSQFIYPVQQQPSLNHFTDPNNTTVFIGGLSSLVTEDELRAYFQPFGTIVYVKIPVGKCCGFVQYVDRLSAEAAIAGMQGFPIANSRVRLSWGRSAKQTALLQQAMLSNSLQVQQQQPGLQQPNYGYIPSSTCEAPVLPDNNVSSTMLPGCQILNYSNPYANANGLGSNNFSFYSNNNATNTQATSLLADTSSMDLSGTGGQQVIMQGSEAVVNSTNAMLNRLEQGSNGFMFA", "notes": "Nam8 of S. cerevisiae, 523 residues; inter-RRM linker 289-302 and RRM3 303-383 and C-terminal tail modelled; source: endogenous, S. cerevisiae; co-purified in U1 snRNP through the TAP tag on U1A"}, "B2": {"name": "yeast Prp42 (natural protein, S. cerevisiae, UniProt Q03776 1-544, looked up)", "chain": "MDKYTALIHDENFSTLTLNVSRYPKSLAYWEKLLNYIVKASAPICKSTEPQLLKLIRCTYSSMLNEFPYLENYYIDFALLEYKLGNVSMSHKIFQRGLQAFNQRSLLLWTSYLKFCNNVISHQKQLFKKYETAEEYVGLHFFSGEFWDLYLEQISSRCTSSKKYWNVLRKILEIPLHSFSKFYALWLQRIDDIMDLKQLSQLTSKDELLKKLKIDINYSGRKGPYLQDAKKKLKKITKEMYMVVQYQVLEIYSIFESKIYINYYTSPETLVSSDEIETWIKYLDYTITLQTDSLTHLNFQRALLPLAHYDLVWIKYSKWLINSKNDLLGAKNVLLMGLKFSLKKTEIIKLLYSVICKLNEYVLLRNLLEKIESSYSDNVENVDDFEIFWDYLQFKTFCQNSLYSSRYSDSQSNGLLNKELFDKVWKRLSCKEKKSGQEILLNNLVQFYSKDTVEFVEKNIFQKIIEFGWEYYLQNGMFWNCYCRLIYFDTSRSYLDKRQYIVRKIWPQIDKKFAQSVLPSLTEFCESYFPEEMDTLEEMFTEEP", "notes": "Prp42 of S. cerevisiae, 544 residues; residues 2-540 modelled; source: endogenous, S. cerevisiae; co-purified in U1 snRNP through the TAP tag on U1A"}},
  "details_in_all_cases": "both partners purified",
  "key": {"yeast Snu71": {"target": "T1, yeast Snu71 (S. cerevisiae, UniProt P53207 1-620)", "T1 construct": "Snu71 of S. cerevisiae U1 snRNP; not modelled in the structure; source: endogenous, S. cerevisiae; co-purified in U1 snRNP through the TAP tag on U1A", "T1 sequence (looked up)": "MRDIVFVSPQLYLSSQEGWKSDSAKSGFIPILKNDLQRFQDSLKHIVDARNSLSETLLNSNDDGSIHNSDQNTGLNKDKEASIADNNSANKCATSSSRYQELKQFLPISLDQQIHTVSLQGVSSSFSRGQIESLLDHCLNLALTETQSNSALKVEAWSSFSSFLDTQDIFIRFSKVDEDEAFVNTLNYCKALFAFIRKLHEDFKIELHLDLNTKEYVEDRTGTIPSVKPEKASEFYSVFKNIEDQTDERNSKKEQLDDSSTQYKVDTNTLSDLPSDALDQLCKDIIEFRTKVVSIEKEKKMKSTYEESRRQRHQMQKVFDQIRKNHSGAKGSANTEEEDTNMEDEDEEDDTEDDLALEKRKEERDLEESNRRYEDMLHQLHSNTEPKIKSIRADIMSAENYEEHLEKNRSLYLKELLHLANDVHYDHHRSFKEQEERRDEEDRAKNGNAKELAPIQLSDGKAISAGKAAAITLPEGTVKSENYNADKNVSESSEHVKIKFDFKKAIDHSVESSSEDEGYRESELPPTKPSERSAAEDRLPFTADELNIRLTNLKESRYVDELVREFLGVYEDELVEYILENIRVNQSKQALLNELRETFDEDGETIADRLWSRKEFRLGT", "assay": "cross-linking; purified yeast U1 snRNP cross-linked with 100 uM BS3, 30 min, room temperature; trypsin digest, mass spectrometry"}, "yeast Prp42": {"target": "B2", "assay": "cryo-EM structure; natively purified yeast U1 snRNP, 3.6 Å overall resolution"}, "yeast Prp39": {"target": "T2, yeast Prp39 (S. cerevisiae, UniProt P39682 1-629)", "T2 construct": "Prp39 of S. cerevisiae, 629 residues; C-terminal TPR domain 326-552 and C-terminal region 561-627 built, 43-285 docked as homology model; source: endogenous, S. cerevisiae; co-purified in U1 snRNP through the TAP tag on U1A", "T2 sequence (looked up)": "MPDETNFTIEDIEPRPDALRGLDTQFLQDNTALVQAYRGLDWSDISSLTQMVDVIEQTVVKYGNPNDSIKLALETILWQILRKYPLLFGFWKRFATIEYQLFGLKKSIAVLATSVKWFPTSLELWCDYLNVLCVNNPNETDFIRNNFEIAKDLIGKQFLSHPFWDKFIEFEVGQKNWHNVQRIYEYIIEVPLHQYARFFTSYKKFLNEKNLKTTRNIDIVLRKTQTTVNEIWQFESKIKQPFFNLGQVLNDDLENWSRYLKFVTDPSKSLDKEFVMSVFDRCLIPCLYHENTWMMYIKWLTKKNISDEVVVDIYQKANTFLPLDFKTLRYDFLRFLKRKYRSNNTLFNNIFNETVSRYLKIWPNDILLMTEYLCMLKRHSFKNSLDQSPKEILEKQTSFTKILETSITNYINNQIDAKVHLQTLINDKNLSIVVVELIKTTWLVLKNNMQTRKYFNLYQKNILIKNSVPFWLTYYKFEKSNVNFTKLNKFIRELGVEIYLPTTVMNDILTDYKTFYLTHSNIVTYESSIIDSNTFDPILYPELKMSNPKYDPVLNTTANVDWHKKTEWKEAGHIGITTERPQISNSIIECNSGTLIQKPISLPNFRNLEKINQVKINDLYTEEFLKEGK", "assay": "cryo-EM structure; natively purified yeast U1 snRNP, 3.6 Å overall resolution"}, "yeast Nam8": {"target": "B1", "assay": "cryo-EM structure; natively purified yeast U1 snRNP, 3.6 Å overall resolution"}, "yeast U1-70K": {"target": "T3, yeast U1-70K (S. cerevisiae, UniProt Q00916 1-300)", "T3 construct": "U1-70K of S. cerevisiae U1 snRNP; residues 3-91 built, 94-188 (RRM) docked as homology model; source: endogenous, S. cerevisiae; co-purified in U1 snRNP through the TAP tag on U1A", "T3 sequence (looked up)": "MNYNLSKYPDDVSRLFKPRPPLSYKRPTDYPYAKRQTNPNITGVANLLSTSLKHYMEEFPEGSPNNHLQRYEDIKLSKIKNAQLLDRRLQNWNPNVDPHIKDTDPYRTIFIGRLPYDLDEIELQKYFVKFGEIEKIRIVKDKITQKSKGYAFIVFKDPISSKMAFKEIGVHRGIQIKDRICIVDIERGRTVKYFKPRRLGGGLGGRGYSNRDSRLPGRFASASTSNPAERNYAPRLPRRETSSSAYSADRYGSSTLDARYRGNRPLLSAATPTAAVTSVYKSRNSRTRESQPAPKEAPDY", "assay": "cryo-EM structure; natively purified yeast U1 snRNP, 3.6 Å overall resolution"}},
  "data": [
    {"binder": "yeast Prp40 (natural protein, S. cerevisiae, UniProt P33203 1-583, looked up, Prp40 of S. cerevisiae U1 snRNP; not modelled in the structure; source: endogenous, S. cerevisiae; co-purified in U1 snRNP through the TAP tag on U1A) MSIWKEAKDASGRIYYYNTLTKKSTWEKPKELISQEELLLRENGWKAAKTADGKVYYYNPTTRETSWTIPAFEKKVEPIAEQKHDTVSHAQVNGNRIALTAGEKQEPGRTINEEESQYANNSKLLNVRRRTKEEAEKEFITMLKENQVDSTWSFSRIISELGTRDPRYWMVDDDPLWKKEMFEKYLSNRSADQLLKEHNETSKFKEAFQKMLQNNSHIKYYTRWPTAKRLIADEPIYKHSVVNEKTKRQTFQDYIDTLIDTQKESKKKLKTQALKELREYLNGIITTSSSETFITWQQLLNHYVFDKSKRYMANRHFKVLTHEDVLNEYLKIVNTIENDLQNKLNELRLRNYTRDRIARDNFKSLLREVPIKIKANTRWSDIYPHIKSDPRFLHMLGRNGSSCLDLFLDFVDEQRMYIFAQRSIAQQTLIDQNFEWNDADSDEITKQNIEKVLENDRKFDKVDKEDISLIVDGLIKQRNEKIQQKLQNERRILEQKKHYFWLLLQRTYTKTGKPKPSTWDLASKELGESLEYKALGDEDNIRRQIFEDFKPESSAPTAESATANLTLTASKKRHLTPAVELDY", "values": [
      {"measurement": "binding result", "setting": "yeast Snu71", "value": "binds"}
    ]},
    {"binder": "B1", "values": [
      {"measurement": "binding result", "setting": "yeast Prp42", "value": "binds"},
      {"measurement": "binding result", "setting": "yeast Prp39", "value": "binds"}
    ]},
    {"binder": "yeast U1C (natural protein, S. cerevisiae, UniProt Q05900 1-231, looked up, U1C of S. cerevisiae U1 snRNP, 231 residues; NTD residues 1-48; residues 3-47 and 48-195 modelled; also called Yhc1; source: endogenous, S. cerevisiae; co-purified in U1 snRNP through the TAP tag on U1A) MTRYYCEYCHSYLTHDTLSVRKSHLVGKNHLRITADYYRNKARDIINKHNHKRRHIGKRGRKERENSSQNETLKVTCLSNKEKRHIMHVKKMNQKELAQTSIDTLKLLYDGSPGYSKVFVDANRFDIGDLVKASKLPQRANEKSAHHSFKQTSRSRDETCESNPFPRLNNPKKLEPPKILSQWSNTIPKTSIFYSVDILQTTIKESKKRMHSDGIRKPSSANGYKRRRYGN", "values": [
      {"measurement": "binding result", "setting": "yeast Nam8", "value": "binds"},
      {"measurement": "binding result", "setting": "yeast Prp42", "value": "binds"},
      {"measurement": "binding result", "setting": "yeast U1-70K", "value": "binds"}
    ]},
    {"binder": "yeast Snu56 (natural protein, S. cerevisiae, UniProt Q03782 1-492, looked up, Snu56 of S. cerevisiae, 492 residues; N-terminal domain 47-254 and long helix 255-303 modelled; source: endogenous, S. cerevisiae; co-purified in U1 snRNP through the TAP tag on U1A) MRPRRRGLAYHHTKPKGQLSQGHYPTTSNDGQRRKVGNSEAFQSFDIWKNLDRIRSTKKNAGQFIKGSLLILPMRTEDKQQFDECMDELHKYISKDILRCYPQKEQKDEGMLFYIVLKDFNILDSCFVLSVLLAFQKRLWMAPSEKSYFRVPKNINLTGSFYLPKNIETGRGHIITSYRREQPSSSIVEVGFNVVPDFQQFQVKACHVSKFMNELSNFFSQVEFGKCEANVINYFKREYNRTYSQISLALYELPLIGDGLFDIKSYISKTRPIIETSKAQMIKHISEMKAYNEISGLQGDQFPRQQRPLSNSPSSNSISSSQTIEAGATSYQTQPQRHAVNKPSNVLNSSNRHSGPKTFEDGRYSEGNKPGFMTQDEIKQHCIGTIKASMDAVKKKSSYQILKTYVRCPRQNYIDIVYQNLNDLRSKTNCNIVVLNLNNLHESQMWLESLNTTNYTIFAQAPHPSTIRVISIGGVGEYIVKALELILNILEH", "values": [
      {"measurement": "binding result", "setting": "yeast Snu71", "value": "binds"},
      {"measurement": "binding result", "setting": "yeast Nam8", "value": "binds"},
      {"measurement": "binding result", "setting": "yeast Prp42", "value": "binds"}
    ]},
    {"binder": "yeast SmG (natural protein, S. cerevisiae, UniProt P40204 1-77, looked up, SmG of S. cerevisiae, member of the Sm ring of U1 snRNP; source: endogenous, S. cerevisiae; co-purified in U1 snRNP through the TAP tag on U1A) MVSTPELKKYMDKKILLNINGSRKVAGILRGYDIFLNVVLDDAMEINGEDPANNHQLGLQTVIRGNSIISLEALDAI", "values": [
      {"measurement": "binding result", "setting": "yeast Prp42", "value": "binds"}
    ]},
    {"binder": "B2", "values": [
      {"measurement": "binding result", "setting": "yeast Snu71", "value": "binds"},
      {"measurement": "binding result", "setting": "yeast Prp39", "value": "binds"}
    ]}
  ]
}
